Measured values reported in patent publication US20240124607A1 (Merck Sharp & Dohme, published 2024).
Changes are numbered by the printed parent chain. Values belong to the binder of their own block, whether it stands above or below them.

Legend:
Assay in all cases: SPR, 37C, pH 7.4
[1] = biological target: T1, Human CEACAM5 (K398) (human, UniProt P06731 35-685, limits assumed)
T1 construct: also called K398 allele
T1 sequence: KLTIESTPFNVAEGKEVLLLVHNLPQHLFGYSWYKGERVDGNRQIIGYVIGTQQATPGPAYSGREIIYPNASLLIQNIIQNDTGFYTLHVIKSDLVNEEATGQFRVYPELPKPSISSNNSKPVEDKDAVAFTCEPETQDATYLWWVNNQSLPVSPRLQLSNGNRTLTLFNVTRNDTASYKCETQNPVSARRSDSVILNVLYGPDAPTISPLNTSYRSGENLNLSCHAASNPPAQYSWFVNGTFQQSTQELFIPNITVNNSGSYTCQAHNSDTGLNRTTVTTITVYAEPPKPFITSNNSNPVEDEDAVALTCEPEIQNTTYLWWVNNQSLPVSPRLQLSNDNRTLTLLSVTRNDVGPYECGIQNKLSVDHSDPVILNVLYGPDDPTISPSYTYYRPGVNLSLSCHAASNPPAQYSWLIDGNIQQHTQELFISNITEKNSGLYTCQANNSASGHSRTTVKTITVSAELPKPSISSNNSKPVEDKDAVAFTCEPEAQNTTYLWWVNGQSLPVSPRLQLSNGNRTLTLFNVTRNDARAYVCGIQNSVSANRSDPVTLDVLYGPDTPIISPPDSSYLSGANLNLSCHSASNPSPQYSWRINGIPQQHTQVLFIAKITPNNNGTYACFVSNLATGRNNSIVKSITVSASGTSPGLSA

[2] = biological target: T2, Human CEACAM5 V83A (human, UniProt P06731 35-685, limits assumed)
T2 sequence: T1 sequence with V49A, K364E

[3] = biological target: T3, Human CEACAM5 I112V (human, UniProt P06731 35-685, limits assumed)
T3 sequence: T1 sequence with I78V, K364E

[4] = biological target: T4, Human CEACAM5 I113T (human, UniProt P06731 35-685, limits assumed)
T4 sequence: T1 sequence with I79T, K364E

Kd [1]: 6.3 nM
kon [1]: 220000 M⁻¹ s⁻¹
Kd [2]: 66 nM
kon [2]: 140000 M⁻¹ s⁻¹
Kd [3]: 11 nM
kon [3]: 130000 M⁻¹ s⁻¹
Kd [4]: 8.4 nM
kon [4]: 160000 M⁻¹ s⁻¹
B1: AB0466 F3' CEACAM5 TriNKET (bispecific antibody, human IgG1, kappa)
chain: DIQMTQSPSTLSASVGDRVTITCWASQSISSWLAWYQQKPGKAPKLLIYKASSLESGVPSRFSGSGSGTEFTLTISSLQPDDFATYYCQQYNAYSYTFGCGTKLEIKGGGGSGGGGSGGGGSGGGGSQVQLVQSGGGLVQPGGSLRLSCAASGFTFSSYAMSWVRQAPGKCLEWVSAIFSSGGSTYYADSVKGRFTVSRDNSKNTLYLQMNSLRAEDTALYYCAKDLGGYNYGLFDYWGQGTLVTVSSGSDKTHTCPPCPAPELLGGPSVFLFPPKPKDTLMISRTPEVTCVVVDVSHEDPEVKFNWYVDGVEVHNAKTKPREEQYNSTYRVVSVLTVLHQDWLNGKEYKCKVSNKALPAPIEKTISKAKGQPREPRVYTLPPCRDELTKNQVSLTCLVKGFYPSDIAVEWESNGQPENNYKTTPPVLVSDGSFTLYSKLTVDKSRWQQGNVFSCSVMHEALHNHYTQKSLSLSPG
heavy: EVQLVESGGGLVKPGGSLRLSCAASGFTFSSYSMNWVRQAPGKGLEWVSSISSSSSYIYYADSVKGRFTISRDNAKNSLYLQMNSLRAEDTAVYYCARGAPIGAAAGWFDPWGQGTLVTVSSASTKGPSVFPLAPSSKSTSGGTAALGCLVKDYFPEPVTVSWNSGALTSGVHTFPAVLQSSGLYSLSSVVTVPSSSLGTQTYICNVNHKPSNTKVDKKVEPKSCDKTHTCPPCPAPELLGGPSVFLFPPKPKDTLMISRTPEVTCVVVDVSHEDPEVKFNWYVDGVEVHNAKTKPREEQYNSTYRVVSVLTVLHQDWLNGKEYKCKVSNKALPAPIEKTISKAKGQPREPQVCTLPPSRDELTENQVSLTCLVKGFYPSDIAVEWESNGQPENNYKTTPPVLDSDGSFFLYSWLTVDKSRWQQGNVFSCSVMHEALHNHYTQKSLSLSPG
light: DIQMTQSPSSVSASVGDRVTITCRASQGISSWLAWYQQKPGKAPKLLIYAASSLQSGVPSRFSGSGSGTDFTLTISSLQPEDFATYYCQQGVSFPRTFGGGTKVEIKRTVAAPSVFIFPPSDEQLKSGTASVVCLLNNFYPREAKVQWKVDNALQSGNSQESVTEQDSKDSTYSLSSTLTLSKADYEKHKVYACEVTHQGLSSPVTKSFNRGEC

Kd [1]: 19 nM
kon [1]: 86000 M⁻¹ s⁻¹
Kd [2]: 34 nM
kon [2]: 44000 M⁻¹ s⁻¹
Kd [3]: 38 nM
kon [3]: 42000 M⁻¹ s⁻¹
Kd [4]: 29 nM
kon [4]: 47000 M⁻¹ s⁻¹
B2: AB0621 F3' CEACAM5 TriNKET (bispecific antibody, human IgG1, kappa)
chain: DIVMTQSPDSLAVSLGERATINCKSSHSLLYGNFQNNYLAWYQQKPGQPPKLLIYWASTRESGVPDRFSGSGSGTDFTLTISSLQAEDVAVYYCQQYYSYPYTFGCGTKLEIKGGGGSGGGGSGGGGSGGGGSQVQLVQSGAEVKKPGASVKVSCKASGYTFTAYTIHWVRQAPGQCLEWMGYINPSSGYTEYNQKFKDRTTLTADTSISTAYMELSRLRSDDTAVYYCTREGGLLWFDYWGQGTLVTVSSGSDKTHTCPPCPAPELLGGPSVFLFPPKPKDTLMISRTPEVTCVVVDVSHEDPEVKFNWYVDGVEVHNAKTKPREEQYNSTYRVVSVLTVLHQDWLNGKEYKCKVSNKALPAPIEKTISKAKGQPREPRVYTLPPCRDELTKNQVSLTCLVKGFYPSDIAVEWESNGQPENNYKTTPPVLVSDGSFTLYSKLTVDKSRWQQGNVFSCSVMHEALHNHYTQKSLSLSPG
heavy: B1 heavy
light: B1 light

Kd [1]: 1.4 nM
kon [1]: 270000 M⁻¹ s⁻¹
Kd [2]: 8.2 nM
kon [2]: 180000 M⁻¹ s⁻¹
Kd [3]: 2 nM
kon [3]: 190000 M⁻¹ s⁻¹
Kd [4]: 1.9 nM
kon [4]: 210000 M⁻¹ s⁻¹
B3: AB0411 F3' CEACAM5 TriNKET (bispecific antibody, human IgG1, kappa)
chain: DIQLTQSPATLSVSPGERATLSCRASQSVSSSYLAWYQQKPGQAPRLLIYGASSRATGIPDRFSGSGSGTDFTLTISRLEPEDFAVYYCQQYNNWPLTFGCGTKVEIKGGGGSGGGGSGGGGSGGGGSQVQLVQSGGGLVQPGGSLRLSCAASGFTFTSYAMSWVRQAPGKCLEWVSAISGTGDSTFYADSVKGRFTFSRDNSKNTLYLQMNSLRAEDTAVYYCAKDLGWLQYGLFDYWGQGTLVTVSSGSDKTHTCPPCPAPELLGGPSVFLFPPKPKDTLMISRTPEVTCVVVDVSHEDPEVKFNWYVDGVEVHNAKTKPREEQYNSTYRVVSVLTVLHQDWLNGKEYKCKVSNKALPAPIEKTISKAKGQPREPRVYTLPPCRDELTKNQVSLTCLVKGFYPSDIAVEWESNGQPENNYKTTPPVLVSDGSFTLYSKLTVDKSRWQQGNVFSCSVMHEALHNHYTQKSLSLSPG
heavy: B1 heavy
light: B1 light
